Reference: patent EP4803150A2 (Lyvgen Biopharma Holdings Limited, dated 2026)

T1: CD3 (human)
T1 chain: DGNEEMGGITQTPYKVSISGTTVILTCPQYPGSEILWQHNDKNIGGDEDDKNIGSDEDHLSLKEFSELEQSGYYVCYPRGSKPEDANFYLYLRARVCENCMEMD

B1: Ly1963 (multi-specific antibody)
chain 1: QVQLVQSGAEVKKPGASVKVSCKASGYTFTSYVMHWVRQKPGQGLEWIGYINPYNEGTESTDKFKGRATMTSDKSTSTVYMELSSLRSEDTAVYYCASIYYGYEGTYFGVWGQGTLVTVSSASTKGPSVFPLAPSSKSTSGGTAALGCLVKDYFPEPVTVSWNSGALTSGVHTFPAVLQSSGLYSLSSVVTVPSSSLGTQTYICNVNHKPSNTKVDKKVEPKSCGGGGSGGGGSGGGGSGGGGSEVQLVESGGGLVQPGGSLRLSCAASGFTFSTYAMNWVRQAPGKGLEWVGRIRSKYNNYATYYADSVKGRFTISRDDSKNSLYLQMNSLKTEDTAVYYCVRHGNFGNSYVSWFAYWGQGTLVTVSSGGGGSDKTHTCPPCPAPEAAGPSVFLFPPKPKDTLMISRTPEVTCVVVDVSHEDPEVKFNWYVDGVEVHNAKTKPREEQYNSTYRVVSVLTVLHQDWLNGKEYKCKVSNKALPAPIEKTISKAKGQPREPQVYTLPPSREEMTKNQVSLWCLVKGFYPSDIAVEWESNGQPENNYKTTPPVLDSDGSFFLYSKLTVDKSRWQQGNVFSCSVMHEALHNHYTQKSLSLSPGGGGGSGGGGSGGGGSGGGGSQVQLVQSGAEVKKPGASVKVSCKASGYTFAGFEMHWVRQAPGQGLEWMGAIDPKTGGTDYNQKFKDRVTMTRDTSISTAYMELSRLRSDDTAVYYCARDLGYFDVWGQGTLVTVSS
chain 2: QVQLVQSGAEVKKPGASVKVSCKASGYTFTSYVMHWVRQKPGQGLEWIGYINPYNEGTESTDKFKGRATMTSDKSTSTVYMELSSLRSEDTAVYYCASIYYGYEGTYFGVWGQGTLVTVSSASTKGPSVFPLAPSSKSTSGGTAALGCLVKDYFPEPVTVSWNSGALTSGVHTFPAVLQSSGLYSLSSVVTVPSSSLGTQTYICNVNHKPSNTKVDKKVEPKSCGGGGSGGGGSGGGGSGGGGSQAVVTQEPSLTVSPGGTVTLTCRSSTGAVTTSNYANWVQQKPGQAPRGLIGGTNKRAPWTPARFSGSLLGGKAALTITGAQAEDEADYYCALWYSNLWVFGGGTKLTVLGGGGSDKTHTCPPCPAPEAAGPSVFLFPPKPKDTLMISRTPEVTCVVVDVSHEDPEVKFNWYVDGVEVHNAKTKPREEQYNSTYRVVSVLTVLHQDWLNGKEYKCKVSNKALPAPIEKTISKAKGQPREPQVYTLPPSREEMTKNQVSLSCAVKGFYPSDIAVEWESNGQPENNYKTTPPVLDSDGSFFLVSKLTVDKSRWQQGNVFSCSVMHEALHNHYTQKSLSLSPGGGGGSGGGGSGGGGSGGGGSDIQMTQSPSSLSASVGDRVTITCRASQDIRSNLNWYQQKPGGAVKLLIYYTSRLHSGVPSRFSGSGSGTDYTLTISSLQPEDFATYFCQQSEKLPRTFGGGTKVEIR
chain 3: EIVLTQSPATLSLSPGERATLSCRASSSVSYMHWYQQKPGQAPRPWIYATSNLASGIPARFSGSRSGTDYTLTISSLEPEDFAVYYCQQWSSNTLTFGGGTKVEIKRTVAAPSVFIFPPSDEQLKSGTASVVCLLNNFYPREAKVQWKVDNALQSGNSQESVTEQDSKDSTYSLSSTLTLSKADYEKHKVYACEVTHQGLSSPVTKSFNRGEC
notes: Trispecific B7H3/CD3/CD137
B2: Anti-CD3 Ly305 (antibody, V domains shown)
VH: EVQLVESGGGLVQPGGSLRLSCAASGFTFSTYAMNWVRQAPGKGLEWVGRIRSKYNNYATYYADSVKGRFTISRDDSKNSLYLQMNSLKTEDTAVYYCVRHGNFGNSYVSWFAYWGQGTLVTVSS
VL: QAVVTQEPSLTVSPGGTVTLTCRSSTGAVTTSNYANWVQQKPGQAPRGLIGGTNKRAPWTPARFSGSLLGGKAALTITGAQAEDEADYYCALWYSNLWVFGGGTKLTVL
notes: Parent mAb; also called CD3 mAb Ly305
B3: Ly1965 (bispecific antibody)
chain 1: QVQLVQSGAEVKKPGASVKVSCKASGYTFTSYVMHWVRQKPGQGLEWIGYINPYNEGTESTDKFKGRATMTSDKSTSTVYMELSSLRSEDTAVYYCASIYYGYEGTYFGVWGQGTLVTVSSASTKGPSVFPLAPSSKSTSGGTAALGCLVKDYFPEPVTVSWNSGALTSGVHTFPAVLQSSGLYSLSSVVTVPSSSLGTQTYICNVNHKPSNTKVDKKVEPKSCGGGGSGGGGSGGGGSGGGGSEVQLVESGGGLVQPGGSLRLSCAASGFTFSTYAMNWVRQAPGKGLEWVGRIRSKYNNYATYYADSVKGRFTISRDDSKNSLYLQMNSLKTEDTAVYYCVRHGNFGNSYVSWFAYWGQGTLVTVSSGGGGSDKTHTCPPCPAPEAAGPSVFLFPPKPKDTLMISRTPEVTCVVVDVSHEDPEVKFNWYVDGVEVHNAKTKPREEQYNSTYRVVSVLTVLHQDWLNGKEYKCKVSNKALPAPIEKTISKAKGQPREPQVYTLPPSREEMTKNQVSLWCLVKGFYPSDIAVEWESNGQPENNYKTTPPVLDSDGSFFLYSKLTVDKSRWQQGNVFSCSVMHEALHNHYTQKSLSLSPG
chain 2: QVQLVQSGAEVKKPGASVKVSCKASGYTFTSYVMHWVRQKPGQGLEWIGYINPYNEGTESTDKFKGRATMTSDKSTSTVYMELSSLRSEDTAVYYCASIYYGYEGTYFGVWGQGTLVTVSSASTKGPSVFPLAPSSKSTSGGTAALGCLVKDYFPEPVTVSWNSGALTSGVHTFPAVLQSSGLYSLSSVVTVPSSSLGTQTYICNVNHKPSNTKVDKKVEPKSCGGGGSGGGGSGGGGSGGGGSQAVVTQEPSLTVSPGGTVTLTCRSSTGAVTTSNYANWVQQKPGQAPRGLIGGTNKRAPWTPARFSGSLLGGKAALTITGAQAEDEADYYCALWYSNLWVFGGGTKLTVLGGGGSDKTHTCPPCPAPEAAGPSVFLFPPKPKDTLMISRTPEVTCVVVDVSHEDPEVKFNWYVDGVEVHNAKTKPREEQYNSTYRVVSVLTVLHQDWLNGKEYKCKVSNKALPAPIEKTISKAKGQPREPQVYTLPPSREEMTKNQVSLSCAVKGFYPSDIAVEWESNGQPENNYKTTPPVLDSDGSFFLVSKLTVDKSRWQQGNVFSCSVMHEALHNRFTQKSLSLSPG
chain 3: B1 chain 3
notes: B7H3/CD3
B4: Ly2128 (multi-specific antibody)
chain 1: QVQLVQSGAEVKKPGASVKVSCKASGYTFTSYVMHWVRQKPGQGLEWIGYINPYNEGTESTDKFKGRATMTSDKSTSTVYMELSSLRSEDTAVYYCASIYYGYEGTYFGVWGQGTLVTVSSASTKGPSVFPLAPSSKSTSGGTAALGCLVKDYFPEPVTVSWNSGALTSGVHTFPAVLQSSGLYSLSSVVTVPSSSLGTQTYICNVNHKPSNTKVDKKVEPKSCGGGGSGGGGSGGGGSGGGGSEVQLVESGGGLVQPGGSLRLSCAASGFTFSTYAMNWVRQAPGKGLEWVGRIRSKYNNYATYYADSVKGRFTISRDDSKNSLYLQMNSLKTEDTAVYYCVRHGNFGNSYVSWFAYWGQGTLVTVSSGGGGSDKTHTCPPCPAPEAAGPSVFLFPPKPKDTLMISRTPEVTCVVVDVSHEDPEVKFNWYVDGVEVHNAKTKPREEQYNSTYRVVSVLTVLHQDWLNGKEYKCKVSNKALPAPIEKTISKAKGQPREPQVYTLPPSREEMTKNQVSLWCLVKGFYPSDIAVEWESNGQPENNYKTTPPVLDSDGSFFLYSKLTVDKSRWQQGNVFSCSVMHEALHNHYTQKSLSLSPGGGGGSGGGGSGGGGSGGGGSQVQLVQSGAEVKKPGASVKVSCKASGYTFTSYYIHWVRQAPGQGLEWIGCIYPGNVNTNYNEKFKDRATLTVDTSISTAYMELSRLRSDDTAVYFCTRSHYGLDWNFDVWGQGTTVTVSS
chain 2: not shown
chain 3: B1 chain 3
notes: Tri-specific B7H3/CD3/CD28

Molecular target: T1, CD3
Assay: CD3 binding as in Example 2 (ELISA or FCM)
B1 gave an EC50 of 0.74 µg/mL. B2 was tested, and the EC50 was 0.03 µg/mL. B3 showed an EC50 of 0.419 µg/mL. In the case of B4, the EC50 is reported as 1.08 µg/mL.
